Positions count from the first letter of the chain named. Numbers in names are those of the source.

For orientation: Kd means the free concentration of one partner at which half of the binding sites on the other are occupied at equilibrium, for simple one-to-one binding. Read a high Kd as a looser complex.

B1: soluble FLRT3 extracellular domain fused to the constant fraction of human IgG (FLRT3^ECD-Fc) (Fc fusion)
chain: KSCPSVCRCDAGFIYCNDRFLTSIPTGIPEDATTLYLQNNQINNAGIPSDLKNLLKVERIYLYHNSLDEFPTNLPKYVKELHLQENNIRTITYDSLSKIPYLEELHLDDNSVSAVSIEEGAFRDSNYLRLLFLSRNHLSTIPWGLPRTIEELRLDDNRISTISSPSLQGLTSLKRLVLDGNLLNNHGLGDKVFFNLVNLTELSLVRNSLTAAPVNLPGTNLRKLYLQDNHINRVPPNAFSYLRQLYRLDMSNNNLSNLPQGIFDDLDNITQLILRNNPWYCGCKMKWVRDWLQSLPVKVNVRGLMCQAPEKVRGMAIKDLNAELFDCKDSGIVSTIQITTAIPNTVYPAQGQWPAPVTKQPDIKNPKLTKDHQTTGSPSRKTITITVKSVTSDTIHISWKLALPMTALRLSWLKLGHSPAFGSITETIVTGERSEYLVTALEPDSPYKVCMVPMETSNLYLFDETPVCIETETAPLRMYNPTTTLNREQEKEPYKNPNLP
modifications: N-terminal HA/Flag epitopes left out; isoform not printed (Q9HAR2-2 chosen over Q9HAR2-4, both fit the variant numbering); signal peptide removed and autoproteolysis at the GPS expected in the cell
B2: Latrophilin-3 ADHD-related variant R465S (Lphn3^R465S) (receptor)
chain: MWPSQLLIFMMLLAPIIHAFSRAPIPMAVVRRELSCESYPIELRCPGTDVIMIESANYGRTDDKICDSDPAQMENIRCYLPDAYKIMSQRCNNRTQCAVVAGPDVFPDPCPGTYKYLEVQYECVPYKVEQKVFLCPGLLKGVYQSEHLFESDHQSGAWCKDPLQASDKIYYMPWTPYRTDTLTEYSSKDDFIAGRPTTTYKLPHRVDGTGFVVYDGALFFNKERTRNIVKFDLRTRIKSGEAIIANANYHDTSPYRWGGKSDIDLAVDENGLWVIYATEQNNGKIVISQLNPYTLRIEGTWDTAYDKRSASNAFMICGILYVVKSVYEDDDNEATGNKIDYIYNTDQSKDSLVDVPFPNSYQYIAAVDYNPRDNLLYVWNNYHVVKYSLDFGPLDSRSGQAHHGQVSYISPPIHLDSELERPSVKDISTTGPLGMGSTTTSTTLRTTTLSPGRSTTPSVSGRRNSSTSTPSPAVEVLDDMTTHLPSASSQIPALEESCEAVEAREIMWFKTRQGQIAKQPCPAGTIGVSTYLCLAPDGIWDPQGPDLSNCSSPWVNHITQKLKSGETAANIARELAEQTRNHLNAGDITYSVRAMDQLVGLLDVQLRNLTPGGKDSAARSLNKLQKRERSCRAYVQAMVETVNNLLQPQALNAWRDLTTSDQLRAATMLLHTVEESAFVLADNLLKTDIVRENTDNIKLEVARLSTEGNLEDLKFPENMGHGSTIQLSANTLKQNGRNGEIRVAFVLYNNLGPYLSTENASMKLGTEALSTNHSVIVNSPVITAAINKEFSNKVYLADPVVFTVKHIKQSEENFNPNCSFWSYSKRTMTGYWSTQGCRLLTTNKTHTTCSCNHLTNFAVLMAHVEVKHSDAVHDLLLDVITWVGILLSLVCLLICIFTFCFFRGLQSDRNTIHKNLCISLFVAELLFLIGINRTDQPIACAVFAALLHFFFLAAFTWMFLEGVQLYIMLVEVFESEHSRRKYFYLVGYGMPALIVAVSAAVDYRSYGTDKVCWLRLDTYFIWSFIGPATLIIMLNVIFLGIALYKMFHHTAILKPESGCLDNINYEDNRPFIKSWVIGAIALLCLLGLTWAFGLMYINESTVIMAYLFTIFNSLQGMFIFIFHCVLQKKVRKEYGKCLRTHCCSGKSTESSIGSGKTSGSRTPGRYSTGSQSRIRRMWNDTVRKQSESSFITGDINSSASLNREPYRETSMGVKLNIAYQIGASEQCQGYKCHGYSTTEW
B3: Latrophilin-3 wild type (Lphn3^HA,Flag) (receptor)
chain: B2 chain with S465R
B4: Latrophilin-3 ADHD-related variant A247S (Lphn3^A247S) (receptor)
chain: B2 chain with A247S, S465R
B5: Latrophilin-3 ADHD-related variant D615N (Lphn3^D615N) (receptor)
chain: B2 chain with S465R, D615N
B6: Latrophilin-3 ADHD-related variant T783M (Lphn3^T783M) (receptor)
chain: B2 chain with S465R, T783M

The target in assay [1] is B3.
Assay [2] deals with 8xHis-tagged Teneurin-2 extracellular domain (Ten2^ECD-His) (UniProt Q9NT68 401-2774, HA/Flag epitopes left out; isoform assumed; signal peptide removed and GPS autoproteolysis expected).
Assay [3] deals with 8xHis-tagged Teneurin-2 extracellular domain (Ten2^ECD-His) (UniProt Q9NT68 401-2774, N-terminal HA/Flag epitopes left out; isoform not printed (Q9HAR2-2 chosen over Q9HAR2-4, both fit the variant numbering); signal peptide removed and autoproteolysis at the GPS expected in the cell).

Turning to B1, in assay [1], the Kd is 0.988 nM. In assay [2], B2 showed a Kd of 1.06 nM. As for B3, the Kd in assay [3] stood at 0.69 nM. Molecule B4 showed a Kd in assay [2] of 1.15 nM.

In assay [2], B5 displayed a Kd of 0.896 nM.

For the molecule B6, the Kd in assay [2] worked out at 0.756 nM.
